Experimental data reported in the supplement of paper PMC10567573.

B1: SPOPL (parent)
chain: AKREETKAMESQRAYRFVQGKDWG
B2: MNAT1 (parent)
chain: SLREYNDFLEEVEEIVFNLTNNVD

Variants of: B1
Assay: protein stability index of a GFP-peptide fusion (GPS, HEK-293T) (PSI 1-6); higher = more stable
Conditions: c terminus: a fixed tail appended
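Note: lentivirally expressed fusions sorted by FACS into six bins by GFP to DsRed ratio, PSI derived from sequencing read proportions per bin multiplied by bin number.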

| Variant | protein stability index |
| --- | --- |
| AKREETKAMESQRAYRFVQGKDWY [G24Y] | 2.41 |
| AKREETKAMESQRAYRFVQGKDWC [G24C] | 2.18 |
| AKREETKAMESQRAYRFVQGKDWV [G24V] | 2.91 |
| AKREETKAMESQRAYRFVQGKDWK [G24K] | 4.32 |
| AKREETKAMESQRAYRFVQGKDWF [G24F] | 1.81 |
| AKREETKAMESQRAYRFVQGKDWM [G24M] | 2.54 |
| AKREETKAMESQRAYRFVQGKDWE [G24E] | 3.24 |
| AKREETKAMESQRAYRFVQGKDWN [G24N] | 3.63 |
| AKREETKAMESQRAYRFVQGKDWL [G24L] | 2.64 |
| AKREETKAMESQRAYRFVQGKDWW [G24W] | 2.27 |
| AKREETKAMESQRAYRFVQGKDWH [G24H] | 3.39 |
| AKREETKAMESQRAYRFVQGKDWA [G24A] | 3.44 |
| AKREETKAMESQRAYRFVQGKDWP [G24P] | 2.45 |
| AKREETKAMESQRAYRFVQGKDWD [G24D] | 4.16 |
| AKREETKAMESQRAYRFVQGKDWQ [G24Q] | 4.07 |
| AKREETKAMESQRAYRFVQGKDWS [G24S] | 3.49 |
| AKREETKAMESQRAYRFVQGKDWR [G24R] | 3.73 |
| AKREETKAMESQRAYRFVQGKDWI [G24I] | 3 |
| AKREETKAMESQRAYRFVQGKDWT [G24T] | 2.96 |
| AKREETKAMESQRAYRFVQGKDQG [W23Q] | 4.8 |
| AKREETKAMESQRAYRFVQGKDTG [W23T] | 4.86 |
| AKREETKAMESQRAYRFVQGKDSG [W23S] | 4.91 |
| AKREETKAMESQRAYRFVQGKDYG [W23Y] | 4.05 |
| AKREETKAMESQRAYRFVQGKDMG [W23M] | 4.86 |
| AKREETKAMESQRAYRFVQGKDRG [W23R] | 4.49 |
| AKREETKAMESQRAYRFVQGKDNG [W23N] | 3.65 |
| AKREETKAMESQRAYRFVQGKDVG [W23V] | 4.72 |
| AKREETKAMESQRAYRFVQGKDPG [W23P] | 4.79 |

Variants of: B2
Assay: as above
Conditions: c terminus: a fixed tail appended

| Variant | protein stability index |
| --- | --- |
| SLREYNDFLEEVEEIVFNLTNWVD [N22W] | 2.97 |
| SLREYNDFLEEVEEIVFNLTNIVD [N22I] | 2.25 |
| SLREYNDFLEEVEEIVFNLTNSVD [N22S] | 1.78 |
| SLREYNDFLEEVEEIVFNLTNTVD [N22T] | 2.06 |
| SLREYNDFLEEVEEIVFNLTNFVD [N22F] | 2.47 |
| SLREYNDFLEEVEEIVFNLTNAVD [N22A] | 2.69 |
| SLREYNDFLEEVEWIVFNLTNNVD [E14W] | 1.75 |
| SLREYNDFLEEVEKIVFNLTNNVD [E14K] | 1.87 |
| SLREYNDFLEEVENIVFNLTNNVD [E14N] | 2.11 |
| SLREYNDFLEEVEVIVFNLTNNVD [E14V] | 1.61 |
| SLREYNDFLEEVEQIVFNLTNNVD [E14Q] | 2.46 |
| SLREYNDFLEEVTEIVFNLTNNVD [E13T] | 1.58 |
| SLREYNDFLEEVQEIVFNLTNNVD [E13Q] | 1.93 |
| SLREYNDFLEEVDEIVFNLTNNVD [E13D] | 2.87 |
| SLREYNDFLEEVAEIVFNLTNNVD [E13A] | 1.77 |
| SLREYNDFLEEVSEIVFNLTNNVD [E13S] | 1.74 |
| SLREYNDFLEEVHEIVFNLTNNVD [E13H] | 2.15 |
| SLREYNDFLEEVREIVFNLTNNVD [E13R] | 1.87 |
| SLREYNDFLEEVWEIVFNLTNNVD [E13W] | 2.52 |
| SLREYNDFLEEVYEIVFNLTNNVD [E13Y] | 1.63 |
| SLREYNDFLEEVEEIVFTLTNNVD [N18T] | 2.55 |
| SLREYNDFLEEVEEIVFSLTNNVD [N18S] | 2.16 |

| Variant | protein stability index |
| --- | --- |
| SLREYNDFLEEVEEIVFYLTNNVD [N18Y] | 1.4 |
| SLREYNDFLEEVEEIVFGLTNNVD [N18G] | 2.38 |
| SLREYNDFLEEVEEIVFELTNNVD [N18E] | 2.16 |
| SLREYNDFLEEVEEIVFHLTNNVD [N18H] | 1.85 |
| SLREYNDFLEEVEEIVFKLTNNVD [N18K] | 2.01 |
| SLREYNDFLEEVEEIVFFLTNNVD [N18F] | 2.22 |
| SLREYNDELEEVEEIVFNLTNNVD [F8E] | 5.2 |
| SLREYNDNLEEVEEIVFNLTNNVD [F8N] | 4.84 |
| SLREYNDMLEEVEEIVFNLTNNVD [F8M] | 3.51 |
| SLREYNDLLEEVEEIVFNLTNNVD [F8L] | 3.43 |
| SLREYNDVLEEVEEIVFNLTNNVD [F8V] | 3.63 |
| SLREYNDALEEVEEIVFNLTNNVD [F8A] | 3.06 |
| SLREYNDSLEEVEEIVFNLTNNVD [F8S] | 4.91 |
| SLREYNDFLEEVEEIVFNLTTNVD [N21T] | 2.42 |
| SLREYNDFLEEVEEIVFNLTQNVD [N21Q] | 3.08 |
| SLREYNDFLEEVEEIVFNLTGNVD [N21G] | 2.58 |
| SLREYNDFCEEVEEIVFNLTNNVD [L9C] | 3.36 |
| SLREYNDFMEEVEEIVFNLTNNVD [L9M] | 2.76 |
| SLREYNDFTEEVEEIVFNLTNNVD [L9T] | 4.07 |
| SLREYNDFNEEVEEIVFNLTNNVD [L9N] | 4.6 |
| FLREYNDFLEEVEEIVFNLTNNVD [S1F] | 2.67 |
| KLREYNDFLEEVEEIVFNLTNNVD [S1K] | 1.94 |

| Variant | protein stability index |
| --- | --- |
| RLREYNDFLEEVEEIVFNLTNNVD [S1R] | 2.21 |
| MLREYNDFLEEVEEIVFNLTNNVD [S1M] | 1.82 |
| SLVEYNDFLEEVEEIVFNLTNNVD [R3V] | 1.61 |
| SLEEYNDFLEEVEEIVFNLTNNVD [R3E] | 2.12 |
| SLDEYNDFLEEVEEIVFNLTNNVD [R3D] | 2.32 |
| SLCEYNDFLEEVEEIVFNLTNNVD [R3C] | 1.77 |
| SLQEYNDFLEEVEEIVFNLTNNVD [R3Q] | 2.94 |
| SLNEYNDFLEEVEEIVFNLTNNVD [R3N] | 2.18 |
| SLREYNDFLEEVEEIVFNLTNNID [V23I] | 1.98 |
| SLREYNDFLEEVEEIVFNLTNNYD [V23Y] | 1.8 |
| SLREYNDFLEEVEEIVFNLTNNRD [V23R] | 2.18 |
| SLREYNDFLEEVEEIVFNLTNNDD [V23D] | 2.92 |
| SLREYNDFLEEVEEIVFNLTNNKD [V23K] | 2.08 |
| SLREYNDFLEEVEETVFNLTNNVD [I15T] | 3.77 |
| SLREYNDFLEEVEEKVFNLTNNVD [I15K] | 4.08 |
| SLREYNDFLEEVEEFVFNLTNNVD [I15F] | 2.23 |
| SLREYNDFLEEVEEGVFNLTNNVD [I15G] | 4.71 |
| SLREYNDFLEEVEEAVFNLTNNVD [I15A] | 3.78 |
| SLREYNDFLEEVEEHVFNLTNNVD [I15H] | 3.9 |
| SLREYNDFLEEVEEYVFNLTNNVD [I15Y] | 3.35 |
| SLREYNDFLEEVEEMVFNLTNNVD [I15M] | 2.51 |
| SLREYNDFLEEVEERVFNLTNNVD [I15R] | 3.84 |
